T1: Cynomolgous monkey PSMA, full length (Macaca fascicularis, UniProt Q04609 1-750 (human entry))
T1 construct: On transfected HEK293F cells; also called cyno PSMA; EHH56646.1
T1 chain: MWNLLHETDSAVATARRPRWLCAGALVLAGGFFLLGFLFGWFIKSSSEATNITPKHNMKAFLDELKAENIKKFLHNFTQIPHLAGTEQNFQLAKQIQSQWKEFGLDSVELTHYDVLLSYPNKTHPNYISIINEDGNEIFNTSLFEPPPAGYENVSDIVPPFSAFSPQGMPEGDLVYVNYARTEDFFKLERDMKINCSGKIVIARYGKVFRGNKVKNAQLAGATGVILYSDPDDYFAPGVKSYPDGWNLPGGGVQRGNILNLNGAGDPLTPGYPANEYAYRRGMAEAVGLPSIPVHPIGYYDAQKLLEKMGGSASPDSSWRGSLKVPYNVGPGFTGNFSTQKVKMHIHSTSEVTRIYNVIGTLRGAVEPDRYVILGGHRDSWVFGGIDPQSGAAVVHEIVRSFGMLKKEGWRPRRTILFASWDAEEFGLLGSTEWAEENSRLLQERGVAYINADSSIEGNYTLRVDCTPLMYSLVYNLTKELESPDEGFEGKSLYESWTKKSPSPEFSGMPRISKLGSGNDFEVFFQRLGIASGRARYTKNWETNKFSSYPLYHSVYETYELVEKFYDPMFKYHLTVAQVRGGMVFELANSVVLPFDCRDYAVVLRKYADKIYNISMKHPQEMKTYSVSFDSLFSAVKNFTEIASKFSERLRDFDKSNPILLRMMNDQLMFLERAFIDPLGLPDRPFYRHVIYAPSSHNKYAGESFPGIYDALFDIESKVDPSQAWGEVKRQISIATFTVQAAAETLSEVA

T2: recombinant chimpanzee PSMA extracellular domain (ECD) protein (Pan troglodytes, UniProt Q04609 44-750 (human entry))
T2 construct: also called Chimp PSMA ECD; PSMG8
T2 chain: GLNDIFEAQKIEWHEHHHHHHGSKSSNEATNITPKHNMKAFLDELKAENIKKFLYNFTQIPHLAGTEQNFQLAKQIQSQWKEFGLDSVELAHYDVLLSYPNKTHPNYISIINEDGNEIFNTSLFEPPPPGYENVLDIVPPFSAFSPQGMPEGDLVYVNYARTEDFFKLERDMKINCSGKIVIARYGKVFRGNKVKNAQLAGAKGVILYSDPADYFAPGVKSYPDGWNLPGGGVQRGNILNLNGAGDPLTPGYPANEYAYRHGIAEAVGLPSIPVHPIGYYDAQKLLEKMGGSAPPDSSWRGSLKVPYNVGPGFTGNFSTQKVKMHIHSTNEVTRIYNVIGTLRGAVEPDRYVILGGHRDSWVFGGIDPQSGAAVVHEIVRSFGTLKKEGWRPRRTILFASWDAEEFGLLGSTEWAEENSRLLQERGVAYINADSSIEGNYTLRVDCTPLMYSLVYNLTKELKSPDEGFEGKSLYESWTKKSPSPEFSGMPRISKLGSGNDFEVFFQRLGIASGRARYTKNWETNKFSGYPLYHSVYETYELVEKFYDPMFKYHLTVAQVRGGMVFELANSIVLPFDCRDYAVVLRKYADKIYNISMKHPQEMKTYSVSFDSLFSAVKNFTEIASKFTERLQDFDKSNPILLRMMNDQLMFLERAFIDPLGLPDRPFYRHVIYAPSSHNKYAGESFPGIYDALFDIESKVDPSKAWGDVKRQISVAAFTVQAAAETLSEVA

B1: PS3B27 (bispecific antibody, human IgG4 S228P, kappa, lambda, F234A L235A)
heavy 1: not shown
light 1: not shown
heavy 2: EVQLVESGGGLVQPGGSLRLSCAASGFTFNTYAMNWVRQAPGKGLEWVARIRSKYNNYATYYAASVKGRFTISRDDSKNSLYLQMNSLKTEDTAVYYCARHGNFGNSYVSWFAYWGQGTLVTVSSASTKGPSVFPLAPCSRSTSESTAALGCLVKDYFPEPVTVSWNSGALTSGVHTFPAVLQSSGLYSLSSVVTVPSSSLGTKTYTCNVDHKPSNTKVDKRVESKYGPPCPPCPAPEAAGGPSVFLFPPKPKDTLMISRTPEVTCVVVDVSQEDPEVQFNWYVDGVEVHNAKTKPREEQFNSTYRVVSVLTVLHQDWLNGKEYKCKVSNKGLPSSIEKTISKAKGQPREPQVYTLPPSQEEMTKNQVSLTCLVKGFYPSDIAVEWESNGQPENNYKTTPPVLDSDGSFLLYSKLTVDKSRWQEGNVFSCSVMHEALHNHYTQKSLSLSLGK
light 2: QTVVTQEPSLTVSPGGTVTLTCRSSTGAVTTSNYANWVQQKPGQAPRGLIGGTNKRAPGTPARFSGSLLGGKAALTLSGVQPEDEAEYYCALWYSNLWVFGGGTKLTVLGQPKAAPSVTLFPPSSEELQANKATLVCLISDFYPGAVTVAWKADSSPVKAGVETTTPSKQSNNKYAASSYLSLTPEQWKSHRSYSCQVTHEGSTVEKTVAPTECS
notes: IgG4 PAA; PSMA arm chains first, then CD3 arm (F405L, R409K); also called PSMB127 x CD3B219; PS2B27
B2: PS3B23 (bispecific antibody, human IgG4 S228P, kappa, lambda, F234A L235A)
heavy 1: not shown
light 1: not shown
heavy 2: B1 heavy 2
light 2: B1 light 2
notes: IgG4 PAA; PSMA arm chains first, then CD3 arm (F405L, R409K); also called PSMB123 x CD3B219
B3: PS3B25 (bispecific antibody, human IgG4 S228P, kappa, lambda, F234A L235A)
heavy 1: not shown
light 1: not shown
heavy 2: B1 heavy 2
light 2: B1 light 2
notes: IgG4 PAA; also called PSMB87 x CD3B219
B4: PS3B22 (bispecific antibody, human IgG4 S228P, kappa, lambda, F234A L235A)
heavy 1: not shown
light 1: DIQMTQSPSSLSASVGDRVTITCRASQSIDRWLNWYQQKPGKAPKLLIYAASSLQSGVPSRFSGSGSGTDFTLTISSLQPEDFATYYCQQSPRYPLTFGQGTKVEIKRTVAAPSVFIFPPSDEQLKSGTASVVCLLNNFYPREAKVQWKVDNALQSGNSQESVTEQDSKDSTYSLSSTLTLSKADYEKHKVYACEVTHQGLSSPVTKSFNRGEC
heavy 2: B1 heavy 2
light 2: B1 light 2
notes: IgG4 PAA; PSMA arm chains first, then CD3 arm (F405L, R409K); also called PSMB122 x CD3B219; PSB22
B5: PS3B30 (bispecific antibody, human IgG4 S228P, kappa, lambda, F234A L235A)
heavy 1: not shown
light 1: not shown
heavy 2: B1 heavy 2
light 2: B1 light 2
notes: IgG4 PAA; PSMA arm chains first, then CD3 arm (F405L, R409K); also called PSMB130 x CD3B219
B6: PS3B19 (bispecific antibody, human IgG4 S228P, kappa, lambda, F234A L235A)
heavy 1: not shown
light 1: not shown
heavy 2: B1 heavy 2
light 2: B1 light 2
notes: IgG4 PAA; PSMA arm chains first, then CD3 arm (F405L, R409K); also called PSMB119 x CD3B219
B7: PS3B20 (bispecific antibody, human IgG4 S228P, kappa, lambda, F234A L235A)
heavy 1: not shown
light 1: not shown
heavy 2: B1 heavy 2
light 2: B1 light 2
notes: IgG4 PAA; PSMA arm chains first, then CD3 arm (F405L, R409K); also called PSMB120 x CD3B219
B8: PS3B24 (bispecific antibody, human IgG4 S228P, kappa, lambda, F234A L235A)
heavy 1: not shown
light 1: not shown
heavy 2: B1 heavy 2
light 2: B1 light 2
notes: IgG4 PAA; PSMA arm chains first, then CD3 arm (F405L, R409K); also called PSMB124 x CD3B219
B9: PS3B28 (bispecific antibody, human IgG4 S228P, kappa, lambda, F234A L235A)
heavy 1: not shown
light 1: not shown
heavy 2: B1 heavy 2
light 2: B1 light 2
notes: IgG4 PAA; PSMA arm chains first, then CD3 arm (F405L, R409K); also called PSMB128 x CD3B219

Legend:
[1] = target: T3, recombinant human PSMA extracellular domain (ECD) protein (human, UniProt Q04609 44-750); test: SPR ProteOn, bsAb captured by anti-Fc
T3 construct: also called human PSMA ECD

[2] = target: T1, Cynomolgous monkey PSMA, full length; test: FACS, whole cell binding, cyno PSMA HEK
Protocol: (§1) PSMA×CD3 bispecific antibodies were tested for binding to PSMA positive cell lines LNCAP, human PSMA-HEK, Chimpanzee-PSMA-HEK and Cynomolgous monkey PSMA-HEK. To assess the binding capabilities of the PSMA bispecific antibodies, the cell-binding assay was utilized (described previously). Briefly, PSMA expressing tumor cells are bound by bispecific antibodies at known concentrations and the bound antibody is detected by an anti-human kappa light chain PE conjugated detection reagent (Invitrogen). The Mean Fluorescents Intensity (MFI) is the measure of bound bispecific antibody. The MFI is converted to a relative EC₅₀. EC₅₀ is a commonly used dose-response curve, where the half maximal effective concentration or the EC₅₀ point is defined as the inflection point of the curve. EC₅₀ s were determined by measuring cell bound bispecific and known concentrations. […] The dose response curves were then diluted down to that of background or no bispecific binding. The inflection point of this curve reflects the EC₅₀ point. The calculated EC₅₀ is determined by taking the ug/ml amount of bispecific antibody at the EC₅₀ point and converting it to a molarity value based on the MW of the bispecific antibody. Bispecific antibodies were normalized for protein concentration and then incubated with the same number of cells expressing either human or cyno PSMA. The MFI at each concentration was collected by flow cytometry and plotted as a function of concentration. Data was transformed via log 10 and then plotted. Nonlinear regression of binding curves was done to determine EC₅₀ s. These relative values were used for ranking PSMA binding to target cells.

[3] = target: T4, human PSMA (prostate specific membrane antigen), full length (human, UniProt Q04609 1-750); test: FACS, whole cell binding, LNCaP; calculated EC50
T4 construct: On LNCaP or C4-2B cells (endogenous) or transduced HEK293F cells; also called FOLH1_HUMAN; hPSMA
Protocol: as §1

[4] = target: T2, recombinant chimpanzee PSMA …; test: SPR ProteOn

Row | Binder | EC50 [2] [µg/mL] | EC50 [3] [nM] | further results
1 | B1 | 1.4 | 14.6 | Kd [1]: 10.3 nM; koff [1]: 0.00289 s⁻¹; kon [1]: 287000 M⁻¹ s⁻¹; Kd [4]: 7.48 nM; koff [4]: 0.00156 s⁻¹; kon [4]: 208000 M⁻¹ s⁻¹
2 | B2 | 3.74 | – | –
3 | B3 | – | – | Kd [1]: 5.38 nM; koff [1]: 0.00101 s⁻¹; kon [1]: 188000 M⁻¹ s⁻¹; Kd [4]: 3.54 nM; koff [4]: 0.00099 s⁻¹; kon [4]: 281000 M⁻¹ s⁻¹
4 | B4 | 1.14 | 18.3 | –
5 | B5 | 5.37 | 8.5 | –
6 | B6 | 1.76 | – | –
7 | B7 | 2 | 864 | –
8 | B8 | 18.2 | – | –
9 | B9 | 0.688 | 8.1 | –

Source: patent US20200024360A1 (Janssen / Centocor, published 2020)
